One assay addresses T1, EGF5+6.
T1 construct: also called Hu DLL3 EGF5+6 on HEK293 cells
T1 membrane-anchored DLL3 subdomain construct: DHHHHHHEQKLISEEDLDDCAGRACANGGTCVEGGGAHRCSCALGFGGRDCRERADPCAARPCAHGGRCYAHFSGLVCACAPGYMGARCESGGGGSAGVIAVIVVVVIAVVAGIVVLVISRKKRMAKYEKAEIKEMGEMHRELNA
Briefly: flow cytometry on HEK293 cells expressing the DLL3 subdomain construct, PE anti-human secondary, control: secondary antibody only. The method in brief: (§1)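 Binders tested on HEK293 cells displaying the DLL3 subdomain construct; bound molecules detected by flow cytometry using PE-conjugated anti-human secondary antibody. Negative control: cells with secondary antibody only.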

Assay [1] has as its target T2, EGF6+MEMBRANE PROXIMAL PEPTIDE.
T2 construct: also called Hu DLL3 EGF6+membrane proximal peptide on HEK293 cells
T2 membrane-anchored DLL3 subdomain construct: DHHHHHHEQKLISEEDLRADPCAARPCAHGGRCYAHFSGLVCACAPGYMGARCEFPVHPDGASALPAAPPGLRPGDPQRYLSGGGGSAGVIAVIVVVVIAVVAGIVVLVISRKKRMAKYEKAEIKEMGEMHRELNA
The description is as above. The essentials: as §1

For assay [2], the target named is T3, FLAG-tagged human DLL1 full length (human, UniProt O00548 1-723).
T3 construct: also called human DLL1 on HEK293 cells
T3 sequence: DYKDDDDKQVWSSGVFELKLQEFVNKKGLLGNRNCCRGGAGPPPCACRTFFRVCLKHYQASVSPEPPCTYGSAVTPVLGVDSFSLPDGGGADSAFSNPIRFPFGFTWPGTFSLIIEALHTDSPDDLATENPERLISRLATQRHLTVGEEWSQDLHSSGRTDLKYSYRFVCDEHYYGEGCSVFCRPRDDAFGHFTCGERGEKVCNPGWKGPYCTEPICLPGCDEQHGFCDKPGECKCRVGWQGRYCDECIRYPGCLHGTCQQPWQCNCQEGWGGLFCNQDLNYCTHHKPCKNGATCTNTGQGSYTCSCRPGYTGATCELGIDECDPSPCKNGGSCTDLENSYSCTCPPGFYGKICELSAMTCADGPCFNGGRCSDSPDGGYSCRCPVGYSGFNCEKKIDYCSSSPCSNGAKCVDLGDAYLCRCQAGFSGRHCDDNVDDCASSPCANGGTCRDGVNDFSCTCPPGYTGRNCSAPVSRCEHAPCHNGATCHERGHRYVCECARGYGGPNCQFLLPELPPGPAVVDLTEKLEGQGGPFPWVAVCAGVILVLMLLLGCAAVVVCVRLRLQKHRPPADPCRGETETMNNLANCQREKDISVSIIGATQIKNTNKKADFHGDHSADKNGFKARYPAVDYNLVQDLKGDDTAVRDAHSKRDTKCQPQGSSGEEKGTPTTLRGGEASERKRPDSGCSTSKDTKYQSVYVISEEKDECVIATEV
Briefly: flow cytometry on HEK293 cells expressing human DLL1 (HEK293-huDLL1), PE anti-human secondary, control: secondary antibody only. As to the method: Bound molecules were detected with PE-conjugated anti-human secondary antibody (Sigma-Aldrich, #P8047). As negative control, cells were incubated with secondary antibody only. The samples were measured by flow-cytometry.

The next assay concerns the target T4, Human CD3 E+G HuFc-6xHis (human).
T4 construct: also called hu CD3εγ-Fc
The assay is described as follows: SPR (ProteOn XPR36), HuCD3E_HuCD3G-Fc amine-coupled, bispecific as analyte, Example 4B. The method in brief:
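SPR kinetics with the bispecific constructs flowed as analyte over a directly amine-coupled (pH 4.5 acetate) human CD3εγ-Fc surface. Association runs 600 s and dissociation 1800 s, at 30 μl/min in PBS-T-EDTA.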

The target in assay [3] is T5, trypsin inhibitor from glycine max soybean (Glycine max (soybean)).
T5 construct: also called Tryp
Briefly: SPR (Biacore T200), trypsin inhibitor on CM5 chip, sample at 1 µM. From the text: To prepare the surface for the non-specific binding experiment, chicken egg white lysozyme and trypsin inhibitor from glycine max soybean were coupled manually to a series S CM5 chip with the surface density of 3000-5000 RU using the amine coupling kit according to the manufacture instructions.

The target in the next assay is T6, Human DLL3-His (human, UniProt Q9NYJ7 27-492).
T6 construct: also called huDLL3-His; hu DLL3
T6 sequence: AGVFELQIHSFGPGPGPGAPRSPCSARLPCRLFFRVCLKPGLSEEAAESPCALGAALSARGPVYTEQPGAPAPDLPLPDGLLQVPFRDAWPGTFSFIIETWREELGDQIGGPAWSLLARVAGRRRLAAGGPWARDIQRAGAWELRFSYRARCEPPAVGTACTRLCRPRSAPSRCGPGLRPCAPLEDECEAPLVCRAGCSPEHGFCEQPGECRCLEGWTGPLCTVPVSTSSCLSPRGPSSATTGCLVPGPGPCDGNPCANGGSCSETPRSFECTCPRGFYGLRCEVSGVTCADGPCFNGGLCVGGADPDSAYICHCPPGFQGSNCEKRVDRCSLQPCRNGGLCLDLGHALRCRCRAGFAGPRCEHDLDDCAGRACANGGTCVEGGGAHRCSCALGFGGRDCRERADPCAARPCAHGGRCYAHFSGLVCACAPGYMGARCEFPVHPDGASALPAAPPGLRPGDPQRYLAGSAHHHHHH
The assay is described as follows: SPR (ProteOn XPR36), bispecific captured on protein A/G, hu DLL3 as analyte, Example 4B. The essentials: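 Bispecific constructs captured on protein A/G for 200 s at 30 μl/min, baseline stabilized with PBS-T-EDTA. Human DLL3 analyte injected 300 s at 30 μl/min; dissociation followed for 1800 s.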

T5 sequence (P01070 25-205): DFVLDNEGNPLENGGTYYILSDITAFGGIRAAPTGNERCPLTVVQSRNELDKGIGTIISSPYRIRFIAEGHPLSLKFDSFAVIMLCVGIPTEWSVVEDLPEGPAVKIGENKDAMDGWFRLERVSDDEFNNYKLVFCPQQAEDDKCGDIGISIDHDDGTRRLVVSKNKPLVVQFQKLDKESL
T4 sequence (chain, as listed by the source limits assumed): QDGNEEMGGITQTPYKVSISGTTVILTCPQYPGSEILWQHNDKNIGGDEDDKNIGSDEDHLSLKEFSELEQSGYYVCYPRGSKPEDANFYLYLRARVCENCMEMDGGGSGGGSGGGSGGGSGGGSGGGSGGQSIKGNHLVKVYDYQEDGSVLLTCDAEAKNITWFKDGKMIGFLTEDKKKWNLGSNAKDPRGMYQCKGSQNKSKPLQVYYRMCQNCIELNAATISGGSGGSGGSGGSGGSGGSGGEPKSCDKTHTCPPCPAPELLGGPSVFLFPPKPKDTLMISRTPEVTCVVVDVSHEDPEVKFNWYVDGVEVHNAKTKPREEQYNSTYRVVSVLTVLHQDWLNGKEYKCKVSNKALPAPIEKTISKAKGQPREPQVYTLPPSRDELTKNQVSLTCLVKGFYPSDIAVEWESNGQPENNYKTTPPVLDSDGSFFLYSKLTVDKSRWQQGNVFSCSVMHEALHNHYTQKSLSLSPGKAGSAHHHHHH

B1: DLL3#6/CD3#1 (bispecific antibody, human IgG1, kappa, lambda, L234A L235A)
chain 1: DIQLTQSPSFLSTSVGDRVTITCRASQDISNYFAWYQQKPGKAPKLLIYAASTLQSGVPSRFSGGGSGTEFTLTISSLQPEDFATYYCQQLNSYPYTFGQGTKLEIKRTVAAPSVFIFPPSDEQLKSGTASVVCLLNNFYPREAKVQWKVDNALQSGNSQESVTEQDSKDSTYSLSSTLTLSKADYEKHKVYACEVTHQGLSSPVTKSFNRGECGGGGSEGKSSGSGSESKSTEGKSSGSGSESKSTGGGGSQVQLQESGPGLVKPSETLSLTCTVSGGSISSYFWSWIRQPAGKGLEWIGRIYTSGSTNYNPSLNSRLTMSVDTSKNQFSLKLSSVTAADTAVYYCARRGDWGGFDIWGQGTVVTVSSASTKGPSVFPLAPSSKSTSGGTAALGCLVKDYFPEPVTVSWNSGALTSGVHTFPAVLQSSGLYSLSSVVTVPSSSLGTQTYICNVNHKPSNTKVDKRVEPKSCDKTHTCPPCPAPEAAGGPSVFLFPPKPKDTLMISRTPEVTCVVVDVSHEDPEVKFNWYVDGVEVHNAKTKPREEQYNSTYRVVSVLTVLHQDWLNGKEYKCKVSNKALPAPIEKTISKAKGQPREPQVYTLPPSREEMTKNQVSLWCLVKGFYPSDIAVEWESNGQPENNYKTTPPVLDSDGSFFLYSKLTVDKSRWQQGNVFSCSVMHEALHNHYTQKSLSLSPG
chain 2: EAVVTQEPSLTVSPGGTVTLTCRSSTGAVTTSNYANWVQEKPGQLPRGLIGGTNKRAPWVPARFSGSLLGGKAALTLSGAQPEDEAEYFCALWYSNLWVFGGGTKLTVLGQPKAAPSVTLFPPSSEELQANKATLVCLISDFYPGAVKVAWKADGSPVNTGVETTTPSKQSNNKYAASSYLSLTPEQWKSHRSYSCQVTHEGSTVEKTVAPAECSGGGGSEGKSSGSGSESKSTEGKSSGSGSESKSTGGGGSEVQLVESGGGLVQPGGSLKLSCAASGFTFNTYAMNWVRQAPGKGLEWVARIRSKYNNYATYYADSVKDRFTISRDDSKNTAYLQMNNLKTEDTAVYYCVRHGNFGNSYVSWFAYWGQGTLVTVSAASTKGPSVFPLAPSSKSTSGGTAALGCLVKDYFPEPVTVSWNSGALTSGVHTFPAVLQSSGLYSLSSVVTVPSSSLGTQTYICNVNHKPSNTKVDKRVEPKSCDKTHTCPPCPAPEAAGGPSVFLFPPKPKDTLMISRTPEVTCVVVDVSHEDPEVKFNWYVDGVEVHNAKTKPREEQYNSTYRVVSVLTVLHQDWLNGKEYKCKVSNKALPAPIEKTISKAKGQPREPQVYTLPPSREEMTKNQVSLSCAVKGFYPSDIAVEWESNGQPENNYKTTPPVLDSDGSFFLVSKLTVDKSRWQQGNVFSCSVMHEALHNRFTQKSLSLSPG
notes: Heterodimer of one DLL3 chain and one CD3 chain (scFab-Fc, knob-in-hole)
The term Kd denotes a measure of binding affinity in units of concentration. Read a high Kd as lower affinity. For B1, the binding result (with EGF5+6; in assay [1]; in assay [2]) was “no binding (tested: 1.6 nM)” throughout. In addition, the results for the Kd with Human CD3 E+G HuFc-6xHis and with Human DLL3-His were 2 nM and 0.152 nM, respectively. The “Non-specific binding (RU)” value in assay [3] stood at 0 RU.

These data come from US20220251236A1 (Boehringer Ingelheim, published 2022).
